Measured values reported in patent US20100081612A1 (GENERAL HOSPITAL, published 2010).
Read-outs that look alike come from different tables or passages of the source. Where no end group is shown, it is not given here. [ ]: non-standard residue; d: D form. Cha = N[C@@H](CC1CCCCC1)C(=O)O

Key:
wild-type human PTHR [1] = molecular target: T1, wild-type human PTHR (human, UniProt Q03431 27-593); test: competition binding, HKRK-B7 cells, 125I-PTH(1-34) tracer
T1 construct: whole, on cells; also called PTHR-WT; intact PTHR
T1 sequence (looked up): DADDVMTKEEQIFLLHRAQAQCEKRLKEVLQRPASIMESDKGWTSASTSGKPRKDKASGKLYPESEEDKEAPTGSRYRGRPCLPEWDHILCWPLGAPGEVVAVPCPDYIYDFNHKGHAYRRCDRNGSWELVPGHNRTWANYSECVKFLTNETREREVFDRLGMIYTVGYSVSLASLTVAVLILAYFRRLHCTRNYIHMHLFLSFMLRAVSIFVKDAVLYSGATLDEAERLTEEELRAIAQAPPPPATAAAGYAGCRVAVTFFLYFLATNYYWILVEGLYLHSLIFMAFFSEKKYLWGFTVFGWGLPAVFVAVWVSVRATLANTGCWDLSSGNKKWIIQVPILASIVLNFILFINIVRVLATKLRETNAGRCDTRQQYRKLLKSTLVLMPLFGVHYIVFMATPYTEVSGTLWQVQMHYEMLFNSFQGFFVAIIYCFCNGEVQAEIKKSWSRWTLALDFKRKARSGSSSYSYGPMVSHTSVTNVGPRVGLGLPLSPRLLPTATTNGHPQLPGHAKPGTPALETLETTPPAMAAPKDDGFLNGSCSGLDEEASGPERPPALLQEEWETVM

wild-type human PTHR [2] = molecular target: T1, wild-type human PTHR; test: as above; remark: listed apart in the source
Protocol: (§1) Receptor binding—Binding to the wild-type human PTHR in intact HKRK-B7 cells and ROS 17/2.8 cells was assessed using ¹²⁵I-PTH(1-34) as a tracer radioligand, as described (Shimizu, M., (2001) Endocrinology 142:3068-3074). In brief, the cells in 24-well plates (about 500,000 cells per well) were incubated in binding buffer containing radioligand (about 100,000 cpm per well) with or without unlabeled peptide ligand (3×10⁻⁹ to 1×10⁻⁵ M) for four hours at 15° C. The binding mixture was then removed by aspiration, the cells were rinsed three times with binding buffer, lysed in 1 M NaOH, and the entire lysate was counted for gamma-irradiation in a gamma counter. Binding to PTHR-delNt in COS-7 cell membranes was assessed in 96-well, vacuum filtration plates (Multiscreen-Durapore HV, […], Millipore Corp., Millford, Mass.) using ¹²⁵I-[Aib^{1,3},M]PTH(1-15)NH₂ as a tracer radioligand, as described (Dean, T., (2006) Mol Endocrinol 20:931-942). In brief, cell membranes (20 μg/well) were incubated in membrane binding buffer containing radioligand (30,000 cpm/well) with or without unlabeled peptide ligand (3×10⁻⁹ to 1×10⁻⁵ M) for 90 minutes at 21° C. The plates were then subject to rapid vacuum filtration, the filters were washed once with buffer, detached from the plate and counted for gamma-irradiation in a gamma counter. Non-specific binding was defined as the binding observed in the presence of 1×10⁻⁶ M PTH(1-31)NH₂ for HKRK-B7 and ROS 17/2.8 cells, and 1×10⁻⁶ M [Aib^{1,3},M]PTH(1-15)NH₂ for PTHR-delNt. Specifically bound radioactivity was calculated as a percentage of the radioactivity specifically bound in the absence of competing ligand.
Cyclohexylalanine and glutamate substitutions were introduced into [Ala¹,Arg¹⁹]hPTH(1-31)NH₂. The helical residue values were calculated from [θ]₂₂₂, the mean-residue elipticities observed in the CD spectra at 222 nm. Competition binding studies were performed in intact HKRK-B7 cells stably transfected with the hPTHR using ¹²⁵I-[Nle^{8,21},Tyr³⁴]rPTH(1-34)NH ₂ tracer radioligand, and in membranes prepared from COS-7 cells transiently transfected with hPTHR-delNt and a negative-dominant Gαs using ¹²⁵I-[Aib^{1,3},Nle⁸,Gln¹⁰,Har¹¹,Ala¹²,Trp¹⁴,Tyr¹⁵]rPTH(1-15)NH₂ tracer radioligand. Binding values (nM) are means (+/−s.e.m.) of data from the number of experiments indicated (n).

PTHR-delNt (human) = PTHR-delNt (human) (UniProt Q03431); test: competition binding, COS-7 membranes, 125I-[Aib1,3,M]PTH(1-15) tracer
wild-type human PTHR [3] = molecular target: T1, wild-type human PTHR; test: competition binding, HKRK-B7 cells, 125I-PTH(1-34) tracer; remark: listed apart in the source
Protocol: as §1
Alanine-Scan of the PTH(17-31) domain—Each residue in the (17-31) region of PTH(1-31)NH₂ was individually replaced with alanine and the effects of the substitutions on binding to the intact human PTHR stably expressed in HKRK-B7 cells was assessed. Competition binding studies were performed using whole cells and ¹²⁵I-PTH(1-34) (¹²⁵I-[Nle^{8,21},Tyr³⁴]ratPTH(1-34)NH₂) as a tracer radioligand.

wild-type human PTHR [4] = molecular target: T1, wild-type human PTHR; test: cell-based or functional assay

## AVSEIQLMHNLGKHLNSMRRVEWL[Cha]KKLQDV-NH2 [[Ala^1,Arg^19]hPTH(1-31)NH2 Arg^25→Cha]
wild-type human PTHR [1]
  fold change in binding affinity vs [Ala^1,Arg^19]PTH(1-31)NH2: ≤ 6 fold
wild-type human PTHR [2]
  IC50: 0.103 µM
PTHR-delNt (human)
  IC50: 2.71 µM

B1: [Ala^1,Arg^19]hPTH(1-31)NH2 Val^31→Cha (peptide)
peptide: AVSEIQLMHNLGKHLNSMRRVEWLRKKLQD[Cha]-NH2
modifications: N-terminus assumed
SMILES: CC[C@H](C)[C@H](NC(=O)[C@H](CCC(=O)O)NC(=O)[C@H](CO)NC(=O)[C@@H](NC(=O)[C@H](C)N)C(C)C)C(=O)N[C@@H](CCC(N)=O)C(=O)N[C@@H](CC(C)C)C(=O)N[C@@H](CCSC)C(=O)N[C@@H](Cc1c[nH]cn1)C(=O)N[C@@H](CC(N)=O)C(=O)N[C@@H](CC(C)C)C(=O)NCC(=O)N[C@@H](CCCCN)C(=O)N[C@@H](Cc1c[nH]cn1)C(=O)N[C@@H](CC(C)C)C(=O)N[C@@H](CC(N)=O)C(=O)N[C@@H](CO)C(=O)N[C@@H](CCSC)C(=O)N[C@@H](CCCNC(=N)N)C(=O)N[C@@H](CCCNC(=N)N)C(=O)N[C@H](C(=O)N[C@@H](CCC(=O)O)C(=O)N[C@@H](Cc1c[nH]c2ccccc12)C(=O)N[C@@H](CC(C)C)C(=O)N[C@@H](CCCNC(=N)N)C(=O)N[C@@H](CCCCN)C(=O)N[C@@H](CCCCN)C(=O)N[C@@H](CC(C)C)C(=O)N[C@@H](CCC(N)=O)C(=O)N[C@@H](CC(=O)O)C(=O)N[C@@H](CC1CCCCC1)C(N)=O)C(C)C
wild-type human PTHR [1]
  fold change in binding affinity vs [Ala^1,Arg^19]PTH(1-31)NH2: ≤ 6 fold
wild-type human PTHR [2]
  IC50: 0.066 µM
PTHR-delNt (human)
  IC50: 0.466 µM
  fold change in binding affinity vs [Ala^1,Arg^19]PTH(1-31)NH2: < 3 fold

B2: [Ala^1,Arg^19]hPTH(1-31)NH2 Gln^29→Cha (peptide)
peptide: AVSEIQLMHNLGKHLNSMRRVEWLRKKL[Cha]DV-NH2
modifications: N-terminus assumed
SMILES: CC[C@H](C)[C@H](NC(=O)[C@H](CCC(=O)O)NC(=O)[C@H](CO)NC(=O)[C@@H](NC(=O)[C@H](C)N)C(C)C)C(=O)N[C@@H](CCC(N)=O)C(=O)N[C@@H](CC(C)C)C(=O)N[C@@H](CCSC)C(=O)N[C@@H](Cc1c[nH]cn1)C(=O)N[C@@H](CC(N)=O)C(=O)N[C@@H](CC(C)C)C(=O)NCC(=O)N[C@@H](CCCCN)C(=O)N[C@@H](Cc1c[nH]cn1)C(=O)N[C@@H](CC(C)C)C(=O)N[C@@H](CC(N)=O)C(=O)N[C@@H](CO)C(=O)N[C@@H](CCSC)C(=O)N[C@@H](CCCNC(=N)N)C(=O)N[C@@H](CCCNC(=N)N)C(=O)N[C@H](C(=O)N[C@@H](CCC(=O)O)C(=O)N[C@@H](Cc1c[nH]c2ccccc12)C(=O)N[C@@H](CC(C)C)C(=O)N[C@@H](CCCNC(=N)N)C(=O)N[C@@H](CCCCN)C(=O)N[C@@H](CCCCN)C(=O)N[C@@H](CC(C)C)C(=O)N[C@@H](CC1CCCCC1)C(=O)N[C@@H](CC(=O)O)C(=O)N[C@H](C(N)=O)C(C)C)C(C)C
wild-type human PTHR [1]
  fold change in binding affinity vs [Ala^1,Arg^19]PTH(1-31)NH2: ≤ 6 fold
wild-type human PTHR [2]
  IC50: 0.061 µM
PTHR-delNt (human)
  IC50: 0.319 µM
  fold change in binding affinity vs [Ala^1,Arg^19]PTH(1-31)NH2: < 3 fold

B3: human PTH(1-31)NH2 (peptide)
peptide: SVSEIQLMHNLGKHLNSMERVEWLRKKLQDV-NH2
notes: also called hPTH(1-31)NH2; parental PTH(1-31)NH2 peptide
wild-type human PTHR [3]
  IC50: 0.068 µM
wild-type human PTHR [4]
  inositol phosphate (IP) production, peptide at 1×10^-6 M: 4 fold
PTHR-delNt (human)
  IC50: 3.67 µM

B4: [Ala^1,Arg^19]hPTH(1-31)NH2 Leu^28→Cha (peptide)
peptide: AVSEIQLMHNLGKHLNSMRRVEWLRKK[Cha]QDV-NH2
modifications: N-terminus assumed
SMILES: CC[C@H](C)[C@H](NC(=O)[C@H](CCC(=O)O)NC(=O)[C@H](CO)NC(=O)[C@@H](NC(=O)[C@H](C)N)C(C)C)C(=O)N[C@@H](CCC(N)=O)C(=O)N[C@@H](CC(C)C)C(=O)N[C@@H](CCSC)C(=O)N[C@@H](Cc1c[nH]cn1)C(=O)N[C@@H](CC(N)=O)C(=O)N[C@@H](CC(C)C)C(=O)NCC(=O)N[C@@H](CCCCN)C(=O)N[C@@H](Cc1c[nH]cn1)C(=O)N[C@@H](CC(C)C)C(=O)N[C@@H](CC(N)=O)C(=O)N[C@@H](CO)C(=O)N[C@@H](CCSC)C(=O)N[C@@H](CCCNC(=N)N)C(=O)N[C@@H](CCCNC(=N)N)C(=O)N[C@H](C(=O)N[C@@H](CCC(=O)O)C(=O)N[C@@H](Cc1c[nH]c2ccccc12)C(=O)N[C@@H](CC(C)C)C(=O)N[C@@H](CCCNC(=N)N)C(=O)N[C@@H](CCCCN)C(=O)N[C@@H](CCCCN)C(=O)N[C@@H](CC1CCCCC1)C(=O)N[C@@H](CCC(N)=O)C(=O)N[C@@H](CC(=O)O)C(=O)N[C@H](C(N)=O)C(C)C)C(C)C
wild-type human PTHR [1]
  fold change in binding affinity vs [Ala^1,Arg^19]PTH(1-31)NH2: ≤ 6 fold
wild-type human PTHR [2]
  IC50: 0.065 µM
PTHR-delNt (human)
  IC50: 0.226 µM
  fold change in binding affinity vs [Ala^1,Arg^19]PTH(1-31)NH2: < 3 fold

B5: [Ala^1,Arg^19]hPTH(1-31)NH2 Lys^26→Cha (peptide)
peptide: AVSEIQLMHNLGKHLNSMRRVEWLR[Cha]KLQDV-NH2
modifications: N-terminus assumed
SMILES: CC[C@H](C)[C@H](NC(=O)[C@H](CCC(=O)O)NC(=O)[C@H](CO)NC(=O)[C@@H](NC(=O)[C@H](C)N)C(C)C)C(=O)N[C@@H](CCC(N)=O)C(=O)N[C@@H](CC(C)C)C(=O)N[C@@H](CCSC)C(=O)N[C@@H](Cc1c[nH]cn1)C(=O)N[C@@H](CC(N)=O)C(=O)N[C@@H](CC(C)C)C(=O)NCC(=O)N[C@@H](CCCCN)C(=O)N[C@@H](Cc1c[nH]cn1)C(=O)N[C@@H](CC(C)C)C(=O)N[C@@H](CC(N)=O)C(=O)N[C@@H](CO)C(=O)N[C@@H](CCSC)C(=O)N[C@@H](CCCNC(=N)N)C(=O)N[C@@H](CCCNC(=N)N)C(=O)N[C@H](C(=O)N[C@@H](CCC(=O)O)C(=O)N[C@@H](Cc1c[nH]c2ccccc12)C(=O)N[C@@H](CC(C)C)C(=O)N[C@@H](CCCNC(=N)N)C(=O)N[C@@H](CC1CCCCC1)C(=O)N[C@@H](CCCCN)C(=O)N[C@@H](CC(C)C)C(=O)N[C@@H](CCC(N)=O)C(=O)N[C@@H](CC(=O)O)C(=O)N[C@H](C(N)=O)C(C)C)C(C)C
wild-type human PTHR [1]
  fold change in binding affinity vs [Ala^1,Arg^19]PTH(1-31)NH2: ≤ 6 fold
wild-type human PTHR [2]
  IC50: 0.172 µM
PTHR-delNt (human)
  IC50: 1.87 µM

B6: [Ala^1,Arg^19]hPTH(1-31)NH2 Asp^30→Cha (peptide)
peptide: AVSEIQLMHNLGKHLNSMRRVEWLRKKLQ[Cha]V-NH2
modifications: N-terminus assumed
SMILES: CC[C@H](C)[C@H](NC(=O)[C@H](CCC(=O)O)NC(=O)[C@H](CO)NC(=O)[C@@H](NC(=O)[C@H](C)N)C(C)C)C(=O)N[C@@H](CCC(N)=O)C(=O)N[C@@H](CC(C)C)C(=O)N[C@@H](CCSC)C(=O)N[C@@H](Cc1c[nH]cn1)C(=O)N[C@@H](CC(N)=O)C(=O)N[C@@H](CC(C)C)C(=O)NCC(=O)N[C@@H](CCCCN)C(=O)N[C@@H](Cc1c[nH]cn1)C(=O)N[C@@H](CC(C)C)C(=O)N[C@@H](CC(N)=O)C(=O)N[C@@H](CO)C(=O)N[C@@H](CCSC)C(=O)N[C@@H](CCCNC(=N)N)C(=O)N[C@@H](CCCNC(=N)N)C(=O)N[C@H](C(=O)N[C@@H](CCC(=O)O)C(=O)N[C@@H](Cc1c[nH]c2ccccc12)C(=O)N[C@@H](CC(C)C)C(=O)N[C@@H](CCCNC(=N)N)C(=O)N[C@@H](CCCCN)C(=O)N[C@@H](CCCCN)C(=O)N[C@@H](CC(C)C)C(=O)N[C@@H](CCC(N)=O)C(=O)N[C@@H](CC1CCCCC1)C(=O)N[C@H](C(N)=O)C(C)C)C(C)C
wild-type human PTHR [1]
  fold change in binding affinity vs [Ala^1,Arg^19]PTH(1-31)NH2: ≤ 6 fold
wild-type human PTHR [2]
  IC50: 0.054 µM
PTHR-delNt (human)
  IC50: 0.305 µM
  fold change in binding affinity vs [Ala^1,Arg^19]PTH(1-31)NH2: < 3 fold
